Test results published in PMC5081176.

Tests used:
Assay in all cases: purified protein
Assay type in all cases: biochemical, Homo sapiens
[1] = substrate: Nc1nc2c(ncn2[C@H]2C[C@H](O)[C@@H](COP(=O)(O)OP(=O)(O)OP(=O)(O)O)O2)c(=O)[nH]1; conditions: opposite O2-Me-dT template, Mg2+, pH 8.0, 37 °C
[2] = substrate: Nc1ncnc2c1ncn2[C@H]1C[C@H](O)[C@@H](COP(=O)(O)OP(=O)(O)OP(=O)(O)O)O1; conditions: opposite undamaged template dT (P15/T24), Mg2+, pH 8.0, 37 °C
[3] = substrate: Nc1ccn([C@H]2C[C@H](O)[C@@H](COP(=O)(O)OP(=O)(O)OP(=O)(O)O)O2)c(=O)n1; conditions: opposite O2-Me-dT template, Mg2+, pH 8.0, 37 °C

B1: pol ι (Homo sapiens) (protein)
chain: MEKLGVEPEEEGGGDDDEEDAEAWAMELADVGAAASSQGVHDQVLPTPNASSRVIVHVDLDCFYAQVEMISNPELKDKPLGVQQKYLVVTCNYEARKLGVKKLMNVRDAKEKCPQLVLVNGEDLTRYREMSYKVTELLEEFSPVVERLGFDENFVDLTEMVEKRLQQLQSDELSAVTVSGHVYNNQSINLLDVLHIRLLVGSQIAAEMREAMYNQLGLTGCAGVASNKLLAKLVSGVFKPNQQTVLLPESCQHLIHSLNHIKEIPGIGYKTAKCLEALGINSVRDLQTFSPKILEKELGISVAQRIQKLSFGEDNSPVILSGPPQSFSEEDSFKKCSSEVEAKNKIEELLASLLNRVCQDGRKPHTVRLIIRRYSSEKHYGRESRQCPIPSHVIQKLGTGNYDVMTPMVDILMKLFRNMVNVKMPFHLTLLSVCFCNLKALNTAKKGLIDYYLMPSLSTTSRSGKHSFKMKDTHMEDFPKDKETNRDFLPSGRIESTRTRESPLDTTNFSKEKDINEFPLCSLPEGVDQEVFKQLPVDIQEEILSGKSREKFQGKGSVSCPLHASRGVLSFFSKKQMQDIPINPRDHLSSSKQVSSVSPCEPGTSGFNSSSSSYMSSQKDYSYYLDNRLKDERISQGPKEPQGFHFTNSNPAVSAFHSFPNLQSEQLFSRNHTTDSHKQTVATDSHEGLTENREPDSVDEKITFPSDIDPQVFYELPEAVQKELLAEWKRAGSDFHIGHK
B1 showed a Km [1] of 46 ± 2 µM, a kcat [1] of 0.0019 ± 3.33e-05 s⁻¹ and a kcat/Km [1] of 41.7 ± 1.67 M⁻¹ s⁻¹. It also gave a Km [2] of 2.6 ± 0.4 µM, a kcat [2] of 0.133 ± 0.01 s⁻¹ and a kcat/Km [2] of 51200 ± 4500 M⁻¹ s⁻¹. It also gave a Km [3] of 93 ± 14 µM, a kcat [3] of 0.00102 ± 6.67e-05 s⁻¹ and a kcat/Km [3] of 10.8 ± 1 M⁻¹ s⁻¹.

B2: pol κ (Homo sapiens) (protein)
chain: MDSTKEKCDSYKDDLLLRMGLNDNKAGMEGLDKEKINKIIMEATKGSRFYGNELKKEKQVNQRIENMMQQKAQITSQQLRKAQLQVDRFAMELEQSRNLSNTIVHIDMDAFYAAVEMRDNPELKDKPIAVGSMSMLSTSNYHARRFGVRAAMPGFIAKRLCPQLIIVPPNFDKYRAVSKEVKEILADYDPNFMAMSLDEAYLNITKHLEERQNWPEDKRRYFIKMGSSVENDNPGKEVNKLSEHERSISPLLFEESPSDVQPPGDPFQVNFEEQNNPQILQNSVVFGTSAQEVVKEIRFRIEQKTTLTASAGIAPNTMLAKVCSDKNKPNGQYQILPNRQAVMDFIKDLPIRKVSGIGKVTEKMLKALGIITCTELYQQRALLSLLFSETSWHYFLHISLGLGSTHLTRDGERKSMSVERTFSEINKAEEQYSLCQELCSELAQDLQKERLKGRTVTIKLKNVNFEVKTRASTVSSVVSTAEEIFAIAKELLKTEIDADFPHPLRLRLMGVRISSFPNEEDRKHQQRSIIGFLQAGNQALSATECTLEKTDKDKFVKPLEMSHKKSFFDKKRSERKWSHQDTFKCEAVNKQSFQTSQPFQVLKKKMNENLEISENSDDCQILTCPVCFRAQGCISLEALNKHVDECLDGPSISENFKMFSCSHVSATKVNKKENVPASSLCEKQDYEAHPKIKEISSVDCIALVDTIDNSSKAESIDALSNKHSKEECSSLPSKSFNIEHCHQNSSSTVSLENEDVGSFRQEYRQPYLCEVKTGQALVCPVCNVEQKTSDLTLFNVHVDVCLNKSFIQELRKDKFNPVNQPKESSRSTGSSSGVQKAVTRTKRPGLMTKYSTSKKIKPNNPKHTLDIFFK
In the case of B2, the Km [1] is reported as 64 ± 12 µM, the kcat [1] is reported as 0.000917 ± 6.67e-05 s⁻¹ and the kcat/Km [1] is reported as 14.3 M⁻¹ s⁻¹. The Km [2] was 1.4 ± 0.1 µM, the kcat/Km [2] was 53300 M⁻¹ s⁻¹ and the Km [3] was 160 ± 30 µM. For the same protein, the kcat [3] was 0.00112 ± 0.0001 s⁻¹ and the kcat/Km [3] was 6.83 M⁻¹ s⁻¹.

B3: pol η (Homo sapiens) (protein)
chain: MATGQDRVVALVDMDCFFVQVEQRQNPHLRNKPCAVVQYKSWKGGGIIAVSYEARAFGVTRSMWADDAKKLCPDLLLAQVRESRGKANLTKYREASVEVMEIMSRFAVIERASIDEAYVDLTSAVQERLQKLQGQPISADLLPSTYIEGLPQGPTTAEETVQKEGMRKQGLFQWLDSLQIDNLTSPDLQLTVGAVIVEEMRAAIERETGFQCSAGISHNKVLAKLACGLNKPNRQTLVSHGSVPQLFSQMPIRKIRSLGGKLGASVIEILGIEYMGELTQFTESQLQSHFGEKNGSWLYAMCRGIEHDPVKPRQLPKTIGCSKNFPGKTALATREQVQWWLLQLAQELEERLTKDRNDNDRVATQLVVSIRVQGDKRLSSLRRCCALTRYDAHKMSHDAFTVIKNCNTSGIQTEWSPPLTMLFLCATKFSASAPSSSTDITSFLSSDPSSLPKVPVTSSEAKTQGSGPAVTATKKATTSLESFFQKAAERQKVKEASLSSLTAPTQAPMSNSPSKPSLPFQTSQSTGTEPFFKQKSLLLKQKQLNNSSVSSPQQNPWSNCKALPNSLPTEYPGCVPVCEGVSKLEESSKATPAEMDLAHNSQSMHASSASKSVLEVTQKATPNPSLLAAEDQVPCEKCGSLVPVWDMPEHMDYHFALELQKSFLQPHSSNPQVVSAVSHQGKRNPKSPLACTNKRPRPEGMQTLESFFKPLTH
With B3 the Km [1] was 38.4 ± 1.8 µM, the kcat [1] was 0.00065 ± 1.67e-05 s⁻¹ and the kcat/Km [1] was 17.5 ± 0.667 M⁻¹ s⁻¹. For the same protein, the Km [2] was 5.3 ± 0.3 µM, the kcat [2] was 0.817 ± 0.0333 s⁻¹ and the kcat/Km [2] was 154000 ± 3830 M⁻¹ s⁻¹. The Km [3] was 130.2 ± 11.4 µM, the kcat [3] was 0.00113 ± 5e-05 s⁻¹ and the kcat/Km [3] was 8.67 ± 0.333 M⁻¹ s⁻¹.
